Where two headings read alike, the source gives them in different places.
T1: human CX3CR1 (human, UniProt P49238 1-355)
T1 sequence: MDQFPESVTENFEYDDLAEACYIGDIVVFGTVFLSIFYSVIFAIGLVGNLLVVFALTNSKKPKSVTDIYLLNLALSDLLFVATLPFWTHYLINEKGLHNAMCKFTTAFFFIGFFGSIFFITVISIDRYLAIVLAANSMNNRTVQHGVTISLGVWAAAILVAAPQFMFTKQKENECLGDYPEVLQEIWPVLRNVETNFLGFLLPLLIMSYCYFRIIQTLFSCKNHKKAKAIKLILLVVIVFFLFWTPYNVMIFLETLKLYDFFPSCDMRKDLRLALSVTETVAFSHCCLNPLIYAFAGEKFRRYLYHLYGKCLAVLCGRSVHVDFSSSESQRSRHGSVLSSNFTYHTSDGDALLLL

T2: cynomolgus CX3CR1 (cynomolgus, UniProt P49238 1-355 (human entry))
T2 construct: transiently expressed on HEK293T cells; also called cyCX3CR1; cyno CX3CR1
T2 chain: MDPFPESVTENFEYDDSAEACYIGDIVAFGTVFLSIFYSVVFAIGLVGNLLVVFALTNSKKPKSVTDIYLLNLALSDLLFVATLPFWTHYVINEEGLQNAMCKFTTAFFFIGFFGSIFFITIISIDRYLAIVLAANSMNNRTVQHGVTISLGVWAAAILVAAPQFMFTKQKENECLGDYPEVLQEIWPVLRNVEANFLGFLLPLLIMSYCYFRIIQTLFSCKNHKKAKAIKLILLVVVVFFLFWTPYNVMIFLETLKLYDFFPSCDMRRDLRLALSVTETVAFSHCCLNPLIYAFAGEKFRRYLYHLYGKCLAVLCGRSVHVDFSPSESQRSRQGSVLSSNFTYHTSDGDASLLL


Key:
human CX3CR1 [1] = target: T1, human CX3CR1; assay: cell-based or functional assay
human CX3CR1 [2] = target: T1, human CX3CR1; assay: A647-fractalkine competition FACS, BA/F3-huCX3CR1
human CX3CR1 [3] = target: T1, human CX3CR1; assay: FACS binding, HEK293T human CX3CR1
cynomolgus CX3CR1 [4] = target: T2, cynomolgus CX3CR1; assay: FACS binding, HEK293T cynomolgus CX3CR1
cynomolgus CX3CR1 [5] = target: T2, cynomolgus CX3CR1; assay: FACS binding, cynomolgus against human CX3CR1
human CX3CR1 [6] = target: T1, human CX3CR1; assay: A647-fractalkine competition FACS, CHO-huCX3CR1
From the text: Periplasmic extracts were screened in a human CX3CR1/human Fractalkine FACS competition assay to assess the blocking capacity of the expressed VHHs. Human CX3CR1 was presented on CHO cells overexpressing CX3CR1. Both a setup using cells harvested from an actively growing culture and a setup using frozen cells was used. As a detection reagent labeled fractalkine was used (R&D Systems, Minneapolis, Minn., USA) labeled with alexa647 (A647-Fractalkine) at a degree of labeling of 1. To setup the assay, first a titration series of the labeled fractalkine was performed on the CHO-huCX3CR1 cells in order to determine the EC50 value for binding. Initially screening was performed at a higher concentration of fractalkine (3 nM) to increase the assay robustness. To increase the sensitivity of the screening to a maximum, the EC30 concentration (1 nM) was chosen for subsequent screening. In brief 50 μl of periplasmic extract was added to 6 nM labeled fractalkine (50 μ;) and 200 000 CHO-huCX3CR1 cells. After one hour incubation at 4 C, cells were washed three times before read out was performed on a FACS Array (Becton Dickinson). First a gate was set on the intact cells as determined from the scatter profile. Next, dead cells were gated out by their fluorescence profile from the PI stain (Sigma, St Louis, US). The fluorescence profile from the alexa647 label was determined for each sample and used for calculation of blocking capacity. As controls, conditions were taken along where there was no VHH present in the peri extract or a known irrelevant VHH and samples were included where excess cold fractalkine was included. For each sample the percentage block was determined using the control samples to determine the assay window.
The inhibition of ligand binding to human CX3CR1 was investigated for the different formats as described in Example 4. For this characterization the BA/F3-huCX3CR1 cell line was used showing stable expression of the human CX3CR1 receptor. The alexa647 labeled ligand fractalkine was used at its EC30 concentration and thereby obtained IC50 values are reflective of the Ki values.

human CX3CR1 [7] = target: T1, human CX3CR1; assay: cell-based or functional assay; remark: listed apart in the source
cynomolgus CX3CR1 [8] = target: T2, cynomolgus CX3CR1; assay: FACS binding, cynomolgus against human CX3CR1
Description: (§1) Initially, a FACS based binding setup was used to evaluate the cynomolgus cross reactivity. For this, the VHHs were incubated with the respective cells for 30 minutes at 4° C. followed by three wash steps and subsequently incubated with the detection reagents. As detection, a mouse anti-cmyc antibody (Serotec, MCA2200) followed by a goat anti-mouse antibody coupled to PE (Jackson 115-116-071) was used, each incubation for 30 minutes at 4° C., followed by three wash steps.

human CX3CR1 [9] = target: T1, human CX3CR1; assay: A647-fractalkine competition FACS, CHO-huCX3CR1; remark: listed apart in the source
Method in brief: (§2)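 VHHs compete with Alexa647-fractalkine for CX3CR1 on CHO, BA/F3 or transiently transfected HEK293T cells, with the labeled-ligand amount varying between setups. After 1 h at 4 °C and washing, PI-negative intact cells were gated by flow cytometry. IC50 follows from percentage block, with the window set by no/irrelevant-VHH and excess cold fractalkine controls.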

human CX3CR1 [10] = target: T1, human CX3CR1; assay: A647-fractalkine competition FACS, BA/F3-huCX3CR1; remark: listed apart in the source
Method in brief: as §2

human CX3CR1 [11] = target: T1, human CX3CR1; assay: FACS binding on human CX3CR1 cells, anti-c-myc detection
Description: as §1

cynomolgus CX3CR1 [12] = target: T2, cynomolgus CX3CR1; assay: FACS binding on cynomolgus CX3CR1 cells, anti-c-myc detection
Description: as §1

human CX3CR1 [13] = target: T1, human CX3CR1; assay: competition FACS, BA/F3-huCX3CR1; competitor alexa647-labeled 66B02
From the text: A competitive binding experiment was setup in order to determine whether the VHHs bind overlapping epitopes on CX3CR1. For this, the VHH 66B02 labeled with alexa647 was used in a competition FACS on the BA/F3 cells expressing huCX3CR1. Representative VHHs from the three functional families were used as competitors for the binding of the labeled 66B02.

human CX3CR1 [14] = target: T1, human CX3CR1; assay: periplasmic extract, A647-fractalkine competition FACS, CHO-huCX3CR1
Method in brief: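 Periplasmic VHH extracts competed with Alexa647-fractalkine (EC30, 1 nM; 3 nM initially) for binding to live or frozen CHO cells overexpressing human CX3CR1, 1 h at 4 C. FACS read on intact, PI-negative cells; percent block derived using no-VHH, irrelevant-VHH and excess cold fractalkine controls.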

human CX3CR1 [15] = target: T1, human CX3CR1; assay: A647-fractalkine competition FACS, HEK293-huCX3CR1
Method in brief: as §2

human CX3CR1 [16] = target: T1, human CX3CR1; assay: A647-fractalkine competition FACS, HEK293T human CX3CR1
Method in brief: (§3)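 VHHs competed with Alexa647-labelled human fractalkine (degree of labelling 1, at its EC30 concentration) for human or cynomolgus CX3CR1 transiently expressed in HEK293T cells, with transfections matched by ligand binding. A647 fluorescence of intact, PI-negative cells was read by flow cytometry. % block was taken against no-VHH and excess cold fractalkine controls, giving IC50 values.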

cynomolgus CX3CR1 [17] = target: T2, cynomolgus CX3CR1; assay: A647-fractalkine competition FACS, HEK293T cynomolgus CX3CR1
Method in brief: as §3

cynomolgus CX3CR1 [18] = target: T2, cynomolgus CX3CR1; assay: A647-fractalkine competition FACS, cynomolgus against human CX3CR1
Method in brief: as §3

| Binder | % block, fractalkine induced chemotaxis (human CX3CR1 [1]) [%] | IC50, fractalkine induced chemotaxis (human CX3CR1 [1]) [nM] | EC50 (human CX3CR1 [3]) [nM] | EC50 (cynomolgus CX3CR1 [4]) [nM] | ratio (cynomolgus/human EC50) (cynomolgus CX3CR1 [5]) | % block (human CX3CR1 [6]) [%] | IC50 (human CX3CR1 [6]) [nM] | % block, fractalkine induced chemotaxis (human CX3CR1 [7]) [%] | ratio (cynomolgus/human EC50) (cynomolgus CX3CR1 [8]) | % block (human CX3CR1 [9]) [%] | IC50 (human CX3CR1 [9]) [nM] | % block (human CX3CR1 [10]) [%] | IC50 (human CX3CR1 [10]) [nM] | EC50 (human CX3CR1 [11]) [nM] | EC50 (cynomolgus CX3CR1 [12]) [nM] | % block (human CX3CR1 [14]) [%] | other results |
| --- | --- | --- | --- | --- | --- | --- | --- | --- | --- | --- | --- | --- | --- | --- | --- | --- | --- |
| CX3CR1BII026 (VHH, expressed in E. coli as described for the monovalent VHHs) EVQLVESGGGLVQAGGSLRLSCVASGRTFSSYAMGWFRQAPGKERAFVAGISGSASRKYYADSVKGRFTVSRDNARNTVYLQMNSLKPEDTAVYYCAASNSYPKVQFDYYGQGTQVTVSSGGGGSGGGGSGGGGSGGGGSGGGGSGGGGSGGGGSEVQLVESGGGSVQAGESLRLSCAASGSIFSSNAMAWYRQAPGKRRDLVAAINSVGVTKYADSVKGRFTISRDNAKNTVYLQMNSLKPEDTAVYYCTSDPRRGWDTRYWGQGTQVTVSS | 98 | 0.3 | – | – | – | – | – | – | – | – | – | – | – | – | – | – | IC50 (human CX3CR1 [2]): 0.7 nM |
| CX3CR1BII009 (VHH, expressed in E. coli as described for the monovalent VHHs) KVQLVESGGGLVQPGGSLRLSCATSGTIFSNNAMGWYRQAPGKKRDLVASISSSGSTNYADSVKGRFTVSRDNDKNTGYLQMNSLKPEDTGVYYCTLDARRGWNTAYWGQGAQVTVSSGGGGSGGGGSGGGGSGGGGSGGGGSGGGGSGGGGSEVQLVESGGGLVQAGGSLRLSCVASGRTFSSYAMGWFRQAPGKERAFVAGISGSASRKYYADSVKGRFTVSRDNARNTVYLQMNSLKPEDTAVYYCAASNSYPKVQFDYYGQGTQVTVSS | 79 | 20 | 2 | 6.8 | 3.3 | 91 | 0.7 | – | – | – | – | – | – | – | – | – | – |
| CX3CR1BII012 (VHH, expressed in E. coli as described for the monovalent VHHs) EVQLVESGGGSVQAGGSLRLSCAASGSIFSSNAMAWYRQAPGKQRDLVAGINSVGITKYADSVKGRFTISRDNAKNTVYLQMNSLKPEDTAVYYCTSDPRRGWDTRYWGQGTLVTVSSGGGGSGGGGSGGGGSGGGGSGGGGSGGGGSGGGGSKVQLVESGGGLVQPGGSLRLSCATSGTIFSNNAMGWYRQAPGKKRDLVASISSSGSTNYADSVKGRFTVSRDNDKNTGYLQMNSLKPEDTGVYYCTLDARRGWNTAYWGQGAQVTVSS | 78 | 4 | 0.056 | 0.063 | 1.1 | 93 | 0.8 | – | – | – | – | – | – | – | – | – | – |
| CX3CR1BII007 (VHH, expressed in E. coli as described for the monovalent VHHs (c-myc, His6 tags there)) EVQLVESGGGLVQAGGSLRLSCVASGRTFSSYAMGWFRQAPGKERAFVAGISGSASRKYYADSVKGRFTVSRDNARNTVYLQMNSLKPEDTAVYYCAASNSYPKVQFDYYGQGTQVTVSSGGGGSGGGGSGGGGSGGGGSGGGGSGGGGSGGGGSKVQLVESGGGLVQPGGSLRLSCATSGTIFSNNAMGWYRQAPGKKRDLVASISSSGSTNYADSVKGRFTVSRDNDKNTGYLQMNSLKPEDTGVYYCTLDARRGWNTAYWGQGAQVTVSS | 101 | 4 | 0.31 | 48 | 154 | 100 | 0.38 | – | – | – | – | – | – | – | – | – | – |

Now from value to binder, other results behind:

| % block, fractalkine induced chemotaxis (human CX3CR1 [1]) [%] | IC50, fractalkine induced chemotaxis (human CX3CR1 [1]) [nM] | EC50 (human CX3CR1 [3]) [nM] | EC50 (cynomolgus CX3CR1 [4]) [nM] | ratio (cynomolgus/human EC50) (cynomolgus CX3CR1 [5]) | % block (human CX3CR1 [6]) [%] | IC50 (human CX3CR1 [6]) [nM] | % block, fractalkine induced chemotaxis (human CX3CR1 [7]) [%] | ratio (cynomolgus/human EC50) (cynomolgus CX3CR1 [8]) | % block (human CX3CR1 [9]) [%] | IC50 (human CX3CR1 [9]) [nM] | % block (human CX3CR1 [10]) [%] | IC50 (human CX3CR1 [10]) [nM] | EC50 (human CX3CR1 [11]) [nM] | EC50 (cynomolgus CX3CR1 [12]) [nM] | % block (human CX3CR1 [14]) [%] | Binder | other results |
| --- | --- | --- | --- | --- | --- | --- | --- | --- | --- | --- | --- | --- | --- | --- | --- | --- | --- |
| – | – | – | – | – | – | – | 17 | 9 | 33 | 1.8 | 71 | 2.8 | 1.5 | 14 | 53.1 | CX3CR1BIIPMP18E6 (VHH, family 13; also called 18E06; CX3CR1BII18E06; not shown: C-terminal c-myc and His6 tags) VHH: KVQLVESGGGLVQPGGSLRLSCATSGTIFSNNAMGWYRQAPGKKRDLVASISSSGSTNYADSVKGRFTVSRDNDKNTGYLQMNSLKPEDTGVYYCTLDARRGWNTAYWGQGAQVTVSS | % block (human CX3CR1 [13]): 100%; IC50 (human CX3CR1 [13]): 2.3 nM |
| – | – | – | – | – | – | – | 84 | 3.3 | 104 | 2.1 | 100 | 4 | 35 | 110 | 93.8 | CX3CR1BIIPMP54A12 (VHH, also called CX3CR1BII54A12; not shown: C-terminal c-myc and His6 tags) VHH: EVQLVESGGGSVQAGESLRLSCAASGSIFSSNAMAWYRQAPGKQRDLVAVINSVGITKYADSVKGRFTISGDNAKNTVYLQMNSLKPEDTAVYYCTSDARRGWDTRYWGQGTQVTVSS | IC50, fractalkine induced chemotaxis (human CX3CR1 [7]): 80 nM; % block (human CX3CR1 [15]): 96%; IC50 (human CX3CR1 [15]): 6.8 nM; % block (human CX3CR1 [16]): 96%; IC50 (human CX3CR1 [16]): 6.8 nM; % block (cynomolgus CX3CR1 [17]): 94%; IC50 (cynomolgus CX3CR1 [17]): 67 nM; ratio (cynomolgus/human IC50) (cynomolgus CX3CR1 [18]): 9.85 |
